Results taken from article PMC2731243, “Structure and Novel Functional Mechanism of Drosophila SNF in Sex-Lethal Splicing”.

Tests used:
[1] = target: T1, SNF RRM1 (residues 1-104) (Drosophila melanogaster (Fruit fly), UniProt P43332); assay: NMR 1H-15N HSQC comparison of full-length SNF with isolated RRMs, plus 15N relaxation; inferred in cis from full-length SNF versus isolated domains; separate RRM1 and RRM2 were not reported as mixed in trans
T1 chain: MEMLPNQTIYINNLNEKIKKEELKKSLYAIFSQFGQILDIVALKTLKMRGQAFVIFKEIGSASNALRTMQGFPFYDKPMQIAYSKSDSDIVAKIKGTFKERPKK

SNF RRM1 [2] = target: T2, SNF RRM1 (Drosophila melanogaster, UniProt P43332 1-104); assay: SPR; SPR 25 C: 10 mM HEPES pH 7.4, 150 mM NaCl, 3 mM EDTA, 0.05% P-20 (U1hpII); 50 mM PBS pH 7.0, 1 mM EDTA, 0.05% P-20 (poly(U)). EMSA: 4% native gel, protein ~1 uM, buffer by reference; settings: protein: recombinant; tags: pET-21d(+) vector; label: biotin; hairpin
T2 sequence: T1 chain

[3] = target: T3, SNF full-length (NMR, SPR) (Drosophila melanogaster, UniProt P43332 1-216); assay: SPR; n = 1.06; SPR 25 C: 10 mM HEPES pH 7.4, 150 mM NaCl, 3 mM EDTA, 0.05% P-20 (U1hpII); 50 mM PBS pH 7.0, 1 mM EDTA, 0.05% P-20 (poly(U)). EMSA: 4% native gel, protein ~1 uM, buffer by reference; settings: protein: recombinant; tags: pET-21d(+) vector; label: biotin
T3 sequence: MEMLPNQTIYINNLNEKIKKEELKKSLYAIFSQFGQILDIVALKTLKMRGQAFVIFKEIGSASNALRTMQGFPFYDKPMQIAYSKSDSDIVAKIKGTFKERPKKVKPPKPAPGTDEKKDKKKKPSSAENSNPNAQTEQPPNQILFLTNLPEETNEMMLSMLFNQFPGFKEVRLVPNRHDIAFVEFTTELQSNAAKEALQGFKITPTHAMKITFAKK

SNF RRM1 [4] = target: T2, SNF RRM1; assay: SPR; n = 1.20; SPR 25 C: 10 mM HEPES pH 7.4, 150 mM NaCl, 3 mM EDTA, 0.05% P-20 (U1hpII); 50 mM PBS pH 7.0, 1 mM EDTA, 0.05% P-20 (poly(U)). EMSA: 4% native gel, protein ~1 uM, buffer by reference; settings: protein: recombinant; tags: pET-21d(+) vector; label: biotin
[5] = target: T3, SNF full-length (NMR, SPR); assay: NMR titration; protein:RNA 1:15; both RRMs perturbed; SPR 25 C: 10 mM HEPES pH 7.4, 150 mM NaCl, 3 mM EDTA, 0.05% P-20 (U1hpII); 50 mM PBS pH 7.0, 1 mM EDTA, 0.05% P-20 (poly(U)). EMSA: 4% native gel, protein ~1 uM, buffer by reference; settings: protein: recombinant; tags: pET-21d(+) vector

B1: SNF RRM2 (residues 134-216) (protein)
chain: AQTEQPPNQILFLTNLPEETNEMMLSMLFNQFPGFKEVRLVPNRHDIAFVEFTTELQSNAAKEALQGFKITPTHAMKITFAKK
B1: no binding [1].

Binder GGCUUGGCCAUUGCACCUCGGCUGAGUU (structured_RNA, 5' biotin) [U1hpII (SPR)] has a Kd (SNF RRM1 [2]) of about 4.4 nM.

For CCCCUCCCCUUUUUUUUUAUUUUUUUU (ssRNA, 5' biotin) [2U-run poly(U) RNA (SPR)], the Kd [3] was about 300 nM and the Kd (SNF RRM1 [4]) was about 6000 nM.

UUUUUUUUAUUUUUUUUU (ssRNA) [2U-run (NMR)]: binds [5].
